The sequences below were run on MS2 coat protein (assay: apparent KD of MS2 coat protein; higher = weaker reporter binding). Conditions: Eterna round: R107; input ligand: theophylline 20 uM.
How it was run: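 In 100 mM Tris-HCl pH 7.5 with 80 mM KCl and 4 mM MgCl2, and without or with constant ligand, SNAP-549-labelled MS2 coat protein was titrated in twofold steps from 0.7 or 1.5 nM to 3 µM. Per-step times went from 0.8–1.5 h down to 10–20 min. The RNA switches were transcribed on-chip from Illumina sequencing clusters, and apparent KD is the per-design median of normalised cluster binding-curve fits.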
For “ACAUGAGGACCGGAUACCAGCCACACAACAUGAGGAUCACCCAUGUCCCAUGUAUGAGGAGGCCCUUGGCAGCCGACAUACAUGA [Exclusion - Theophylline B #1]”, the “apparent KD of MS2 coat protein” value was 0.157 µM. In the case of “GGGUGGUAGGCGGCCGCCACUGAUUUUUAUUUAUAGAUGACAUGAGGAUCACCCAUGUUGAUAUGCAGGACCGGGCCUGUUGUUG [aaaP]”, the “apparent KD of MS2 coat protein” value is reported as 0.0197 µM. “CCUAUCCAGUCGGCCGCCACUGAAAACAGUGGGUGAACAUGAGGAUCACCCAUGUCGGAAUACCGCAGGACCGGGACUGUAUAGG [Ex Tryptophan B 23]” was tested, and the “apparent KD of MS2 coat protein” value was 0.393 µM. For “AGCGAUAUGCAUGAUACCAGCUACAUGAGGAUCACCCAUGUGCGUCAGAAAUGACUGUGUAGCCCUUGGCAGCAUAGAGCAUGUA [Exclusion - Theophylline B (Freestyle 11)]”, the “apparent KD of MS2 coat protein” value was 0.0462 µM. For “UCAUACAUGAGGAUCACCCAUGUUCGUGGGCGAGGACCGGUACGGCCGCCACUCGUACUAACGGUUUCUUAAACUUCCUUUCGAG [theeternabot_sameState_MS2_Trp_A_49]”, the “apparent KD of MS2 coat protein” value was 0.0412 µM. “AGCGACAUGCAUGAUACCAGCUACAUGAGGAUCACCCAUGUACGUCAGUAAUGACUGUGUAGCCCUUGGCAGCAUAAAGCAUGUC [Exclusion - Theophylline B (Freestyle 17)]” was tested, and the “apparent KD of MS2 coat protein” value was 0.0445 µM. With “GACAGACGAGGAAGGAGCGACAUGAGGAUCACCCAUGUUGCGGGUUUAAGGUGAACUAAGUGUCAGGUAGGUCGCCUCGCUUUUA [Diatbeat]” the “apparent KD of MS2 coat protein” value was 0.0565 µM. For “UAUCGUCAGACGGCCGCCACUAGAACAUGAGGAUCACCCAUGUAGGUCCUAGAUUCCUCAAUAACUAGGACCGGGUCUGACGAAU [(Trp1)-(Ms2)-(T)'-(M)'-(Trp2)_Design14]”, the “apparent KD of MS2 coat protein” value was 0.137 µM. With “AAGGUGAUCCCAGAUACCAGCUUAACAUGAGGAUCACCCAUGUAUGGGACGAAAGUCCCGGGCCCUUGGCAGCUGGGUUGCCAAG [SSTheo B #16]” the “apparent KD of MS2 coat protein” value was 0.427 µM. With “GGAUAGGACACGGCCGCCACUAGCUAGGAUACUAGCAACAUUUCCUCAUCUGAGGAUCACCCAGGUAGGACCGGGUGUCCUAUCG” the “apparent KD of MS2 coat protein” value was 0.683 µM. In the case of “UCUGGGUCCGCAAGGACCUGGAGUUGCGAUACCAGCACGGUAACGUGCCCUUGGCAGCGCACAUGAGGAUCACCCAUGUGGUGUU [#1 Exclusion - Theophylline A Attempt #17 (HarryS)]”, the “apparent KD of MS2 coat protein” value is reported as 0.365 µM. With “AUAAUAAUGUCGGCCGCCACUAUAAACAUGAGGAACAUGAGGAUCACCCAUGUAUGAGGAUCACCUAGGACCGGGACUAAUAUUA [AstrosExyTryB#5]” the “apparent KD of MS2 coat protein” value was 0.0571 µM. “AUAUGAUCAUGGGAUACCAGAAAUGGUAUUCCUUUAUUUCUUACAUGAGGAUCACCCAUGUUCCCUUGGCAGCUUAUGAUCAUAU [ETHB #5]” was tested, and the “apparent KD of MS2 coat protein” value was 0.0858 µM. With “AACAUGAGGAUCACCCAUGUGUCCUCGAAACGAGGACCGGUACGGCCGCCACUCGGCGUAUGUUGACGAAAAGUCAGCAUACGCA [Mat - Exclusion - Trytophan A - D11]” the “apparent KD of MS2 coat protein” value was 0.209 µM.

Same assay, conditions: Eterna round: R107; input ligand: theophylline 2 mM
With “UGUCAGCGAAAGUUGACAUGCAGUGCCGGUCGAGGACCGGUACGGCCGCCACUCGAUCUCUCGUACAUGAGGAUCACCCAUGUCG [SS Tryp A #19]” the “apparent KD of MS2 coat protein” value was 0.0149 µM. In the case of “AGUAUCAGUGGAAGGAGCGUCGCGACUGCUACAUGAGGAUCACCCAUGUCGCCUUGAGCGCGACAGGUAGGUCGCCACGGUAGGC [SS-ArgB1]”, the “apparent KD of MS2 coat protein” value is reported as 0.0721 µM. “AAUAAUAAGAAUAACGUACCAGGUGAUCAACGAGGACCGGUACGGCCGCCACUCGAAACAUGAGGAUCACCCAUGUAAUAACAAU [|T'-M'-Trp-Ms2|_Design 2_OL]” was tested, and the “apparent KD of MS2 coat protein” value was 0.124 µM. In the case of “AAAUAAAUACAUGAGGAUCACCCAUGUGAAGGAGCGGCCGUUAGGCCAGGUAGGUCGCACAUGAAAGGGAAGCGAAAGAAAUAAU [MAT - Exclusion Arginine A - Mod of Eli - D7]”, the “apparent KD of MS2 coat protein” value is reported as 0.019 µM. With “UGGUACUAGGCGGCCGCCACUGGGUGAUACAUGAGGAUCACCCAUGUUUAAUGCCGAGAGGCAACUAGGACCGGGCCUAGUACAU” the “apparent KD of MS2 coat protein” value was 0.586 µM. With “GUCCUAAGGUCGGCCGCCACUGUAGAGUGUGAGCCAUCACAUGAGGAUCACCCAUGUUGUUGCUAUAGGACCGGGAUUGUAGGAC [#22 Exclusion Tryptophan B]” the “apparent KD of MS2 coat protein” value was 0.0126 µM. With “UGGAGUAGGACGGCCGCCACUAUACAAUGUGUAUACAUGAGGAUCACCCAUGUAAUCCUCGGAGAUAGGACCGGGUCAAGUUGUG [X-tryptB-ms2@35]” the “apparent KD of MS2 coat protein” value was 0.0598 µM. For “CCUCAAUCGUCGGCCGCCACUGAAUCAUGCGGAUACAUGAGGAUCACCCAUGUGGGUGUGGUACGCAGGACCGGGACAAGACCCG [#14 Same State - Tryptophan B]”, the “apparent KD of MS2 coat protein” value was 0.86 µM. For “GAUACUAUGAAAGUAGUAUCUACGUGUUGACGAGGACCGGUACGGCCGCCACUCGACAUGAGGAUCACCCAUGUAUAGAAUAUGU [TrypA_2]”, the “apparent KD of MS2 coat protein” value was 0.0319 µM. For “UAACAUGAGGAUCACCCAUGUUUAGAUGAACGAGGACCGGUACGGCCGCCACUCGAUAAGUGGCAAGAACGAGGGAUUGUAUGCU [Same State Trp A GF3]”, the “apparent KD of MS2 coat protein” value was 0.0117 µM. With “ACAUGAGGACCGGAUACCAGCCACACAACAUGAGGAUCACCCAUGUCCCAUGUAUGAGGAGGCCCUUGGCAGCCGACAUACAUGA [Exclusion - Theophylline B #1]” the “apparent KD of MS2 coat protein” value was 0.398 µM. For “GGGUGGUAGGCGGCCGCCACUGAUUUUUAUUUAUAGAUGACAUGAGGAUCACCCAUGUUGAUAUGCAGGACCGGGCCUGUUGUUG [aaaP]”, the “apparent KD of MS2 coat protein” value was 0.0154 µM. For “CCUAUCCAGUCGGCCGCCACUGAAAACAGUGGGUGAACAUGAGGAUCACCCAUGUCGGAAUACCGCAGGACCGGGACUGUAUAGG [Ex Tryptophan B 23]”, the “apparent KD of MS2 coat protein” value was 1.22 µM. For “UCAUACAUGAGGAUCACCCAUGUUCGUGGGCGAGGACCGGUACGGCCGCCACUCGUACUAACGGUUUCUUAAACUUCCUUUCGAG [theeternabot_sameState_MS2_Trp_A_49]”, the “apparent KD of MS2 coat protein” value was 0.0404 µM. “GACAGACGAGGAAGGAGCGACAUGAGGAUCACCCAUGUUGCGGGUUUAAGGUGAACUAAGUGUCAGGUAGGUCGCCUCGCUUUUA [Diatbeat]” was tested, and the “apparent KD of MS2 coat protein” value was 0.0493 µM. With “UAUCGUCAGACGGCCGCCACUAGAACAUGAGGAUCACCCAUGUAGGUCCUAGAUUCCUCAAUAACUAGGACCGGGUCUGACGAAU [(Trp1)-(Ms2)-(T)'-(M)'-(Trp2)_Design14]” the “apparent KD of MS2 coat protein” value was 0.224 µM. For “AAGGUGAUCCCAGAUACCAGCUUAACAUGAGGAUCACCCAUGUAUGGGACGAAAGUCCCGGGCCCUUGGCAGCUGGGUUGCCAAG [SSTheo B #16]”, the “apparent KD of MS2 coat protein” value was 0.0649 µM. For “GGAUAGGACACGGCCGCCACUAGCUAGGAUACUAGCAACAUUUCCUCAUCUGAGGAUCACCCAGGUAGGACCGGGUGUCCUAUCG”, the “apparent KD of MS2 coat protein” value was 1.07 µM. With “AUAAUAAUGUCGGCCGCCACUAUAAACAUGAGGAACAUGAGGAUCACCCAUGUAUGAGGAUCACCUAGGACCGGGACUAAUAUUA [AstrosExyTryB#5]” the “apparent KD of MS2 coat protein” value was 0.0529 µM. With “AACAUGAGGAUCACCCAUGUGUCCUCGAAACGAGGACCGGUACGGCCGCCACUCGGCGUAUGUUGACGAAAAGUCAGCAUACGCA [Mat - Exclusion - Trytophan A - D11]” the “apparent KD of MS2 coat protein” value was 0.255 µM.

Same assay, conditions: Eterna round: R107; input ligand: tryptophan 2.4 mM
With “AGUAUCAGUGGAAGGAGCGUCGCGACUGCUACAUGAGGAUCACCCAUGUCGCCUUGAGCGCGACAGGUAGGUCGCCACGGUAGGC [SS-ArgB1]” the “apparent KD of MS2 coat protein” value was 0.0403 µM. With “AAAUAAAUACAUGAGGAUCACCCAUGUGAAGGAGCGGCCGUUAGGCCAGGUAGGUCGCACAUGAAAGGGAAGCGAAAGAAAUAAU [MAT - Exclusion Arginine A - Mod of Eli - D7]” the “apparent KD of MS2 coat protein” value was 0.0192 µM. For “CCUCAAUCGUCGGCCGCCACUGAAUCAUGCGGAUACAUGAGGAUCACCCAUGUGGGUGUGGUACGCAGGACCGGGACAAGACCCG [#14 Same State - Tryptophan B]”, the “apparent KD of MS2 coat protein” value was 0.152 µM. For “GAGACAUGAGGAUCACCCAUGUUAGAUGAUACCAGUUAGAGAAGGAGCCCUUGGCAGCGUAAAUCUAGAGCCUAUGACGACAUGU [ss-theoA-1]”, the “apparent KD of MS2 coat protein” value was 0.0132 µM. In the case of “ACAUGAGGAUCACCCAUGUGCCGUCUUGAUACCAGACCCGAAGUAGUCCCUUGGCAGCAACUACGUGACGGUCGCGCAUGUGUAG [kaomullin]”, the “apparent KD of MS2 coat protein” value is reported as 0.0177 µM. “ACAUGAGGAUCACCCAUGUCACGGCACGAUACCAGCUGAUCCGGUGGCCCUUGGCAGCGUGACGUUUGGUCCCGCGGAUCACACG [semullin]” was tested, and the “apparent KD of MS2 coat protein” value was 0.0669 µM. For “UAACAUGAGGAUCACCCAUGUUUAGAUGAACGAGGACCGGUACGGCCGCCACUCGAUAAGUGGCAAGAACGAGGGAUUGUAUGCU [Same State Trp A GF3]”, the “apparent KD of MS2 coat protein” value was 0.0132 µM. For “AAGGUGAUCCGUGAUACCAGCUCAACAUGAGGAUCACCCAUGUAACGGACGAAAGUCCGGAGCCCUUGGCAGCACGGUAAUAAUA [(M)'-(Theo1)-(Ms2)-(Theo2)-(M'')_Design2b]”, the “apparent KD of MS2 coat protein” value was 0.0116 µM. With “ACAUGAGGACCGGAUACCAGCCACACAACAUGAGGAUCACCCAUGUCCCAUGUAUGAGGAGGCCCUUGGCAGCCGACAUACAUGA [Exclusion - Theophylline B #1]” the “apparent KD of MS2 coat protein” value was 0.0781 µM. “CCUAUCCAGUCGGCCGCCACUGAAAACAGUGGGUGAACAUGAGGAUCACCCAUGUCGGAAUACCGCAGGACCGGGACUGUAUAGG [Ex Tryptophan B 23]” was tested, and the “apparent KD of MS2 coat protein” value was 0.574 µM. With “AGCGAUAUGCAUGAUACCAGCUACAUGAGGAUCACCCAUGUGCGUCAGAAAUGACUGUGUAGCCCUUGGCAGCAUAGAGCAUGUA [Exclusion - Theophylline B (Freestyle 11)]” the “apparent KD of MS2 coat protein” value was 0.0384 µM. For “AGCGACAUGCAUGAUACCAGCUACAUGAGGAUCACCCAUGUACGUCAGUAAUGACUGUGUAGCCCUUGGCAGCAUAAAGCAUGUC [Exclusion - Theophylline B (Freestyle 17)]”, the “apparent KD of MS2 coat protein” value was 0.0265 µM. For “GACAGACGAGGAAGGAGCGACAUGAGGAUCACCCAUGUUGCGGGUUUAAGGUGAACUAAGUGUCAGGUAGGUCGCCUCGCUUUUA [Diatbeat]”, the “apparent KD of MS2 coat protein” value was 0.0363 µM. With “AAGGUGAUCCCAGAUACCAGCUUAACAUGAGGAUCACCCAUGUAUGGGACGAAAGUCCCGGGCCCUUGGCAGCUGGGUUGCCAAG [SSTheo B #16]” the “apparent KD of MS2 coat protein” value was 0.17 µM. For “GGAUAGGACACGGCCGCCACUAGCUAGGAUACUAGCAACAUUUCCUCAUCUGAGGAUCACCCAGGUAGGACCGGGUGUCCUAUCG”, the “apparent KD of MS2 coat protein” value was 0.565 µM. “UCUGGGUCCGCAAGGACCUGGAGUUGCGAUACCAGCACGGUAACGUGCCCUUGGCAGCGCACAUGAGGAUCACCCAUGUGGUGUU [#1 Exclusion - Theophylline A Attempt #17 (HarryS)]” was tested, and the “apparent KD of MS2 coat protein” value was 0.204 µM. In the case of “AUAUGAUCAUGGGAUACCAGAAAUGGUAUUCCUUUAUUUCUUACAUGAGGAUCACCCAUGUUCCCUUGGCAGCUUAUGAUCAUAU [ETHB #5]”, the “apparent KD of MS2 coat protein” value is reported as 0.0679 µM.

Reference: the supplement of paper PMC9170038
